Data published in paper PMC3057111.

How the values were obtained:
[1] = biological target: T1, hnRNPLL RRM1 V136D (thunder) (Mus musculus, UniProt Q921F4 109-213, V136D); assay: ITC
T1 sequence: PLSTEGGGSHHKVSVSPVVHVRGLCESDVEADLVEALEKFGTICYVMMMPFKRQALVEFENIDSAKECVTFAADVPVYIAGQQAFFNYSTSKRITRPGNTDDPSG

hnRNPLL RRM1 WT [2] = biological target: T2, hnRNPLL RRM1 WT (Mus musculus, UniProt Q921F4 109-213); assay: ITC
T2 sequence: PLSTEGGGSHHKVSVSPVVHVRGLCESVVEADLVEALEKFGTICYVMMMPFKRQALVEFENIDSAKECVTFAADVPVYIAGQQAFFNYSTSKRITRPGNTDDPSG

[3] = biological target: T1, hnRNPLL RRM1 V136D (thunder); assay: NMR titration
[4] = biological target: T1, hnRNPLL RRM1 V136D (thunder); assay: NMR titration; remark: listed apart in the source
[5] = biological target: T1, hnRNPLL RRM1 V136D (thunder); assay: NMR titration; remark: listed apart in the source
hnRNPLL RRM1 WT [6] = biological target: T2, hnRNPLL RRM1 WT; assay: NMR titration
hnRNPLL RRM1 WT [7] = biological target: T2, hnRNPLL RRM1 WT; assay: NMR titration; remark: listed apart in the source
hnRNPLL RRM1 WT [8] = biological target: T2, hnRNPLL RRM1 WT; assay: NMR titration; remark: listed apart in the source

B1: Ptprc exon 6 ARS 15-mer WT (ssRNA)
RNA: CCUUACCUGCACGCA
Kd [1]: 3100 ± 1400 nM
Kd (hnRNPLL RRM1 WT [2]): 1900 ± 400 nM
Kd [3]: 2000 ± 700 nM
Kd [4]: 1000 ± 400 nM
Kd [5]: 1100 ± 400 nM
Kd (hnRNPLL RRM1 WT [6]): 1500 ± 1300 nM
Kd (hnRNPLL RRM1 WT [7]): 700 ± 700 nM
Kd (hnRNPLL RRM1 WT [8]): 100 nM
